{"source": "patent US10966977B2", "about": "“Combination of anti-CD20 antibody, P13 kinase-delta selective inhibitor, and BTK inhibitor to treat b-cell proliferative disorders” (TG Therapeutics, Inc., priority 2016, dated 2021)", "origin": "cited, not measured here", "molecules": {"B1": {"name": "Ublituximab: chimeric monoclonal antibody targeting a unique epitope on the CD20 antigen, glycoengineered for enhanced affinity for Fcγ RIIIa receptors (antibody, V domains shown)", "VH": "QAYLQQSGAELVRPGASVKMSCKASGYTFTSYNMHWVKQTPRQGLEWIGGIYPGNGDTSYNQKFKGKATLTVGKSSSTAYMQLSSLTSEDSAVYFCARYDYNYAMDYWGQGTSVTVSS", "VL": "QIVLSQSPAILSASPGEKVTMTCRASSSVSYMHWYQQKPGSSPKPWIYATSNLASGVPARFSGSGSGTSYSFTISRVEAEDAATYYCQQWTFNPPTFGGGTRLEIK", "modifications": "Ublituximab Variable heavy chain; Ublituximab Variable light chain"}}, "key": {"[1]": {"system": "relapsed and refractory hematologic malignancies", "details": "single agent"}, "CD20": {"target": "T1, CD20 (Homo sapiens, UniProt P11836)", "T1 sequence (P11836 1-297)": "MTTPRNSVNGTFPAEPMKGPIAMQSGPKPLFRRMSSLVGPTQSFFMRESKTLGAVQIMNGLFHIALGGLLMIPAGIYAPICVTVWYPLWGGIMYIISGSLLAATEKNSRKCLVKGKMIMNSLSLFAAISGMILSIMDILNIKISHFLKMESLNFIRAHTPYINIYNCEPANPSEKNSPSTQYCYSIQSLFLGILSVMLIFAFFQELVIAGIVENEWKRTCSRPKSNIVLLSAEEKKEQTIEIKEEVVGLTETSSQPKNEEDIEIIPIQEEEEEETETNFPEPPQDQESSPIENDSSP"}, "[2]": {"details": "single agent"}, "CD20 antigen": {"target": "T2, CD20 antigen (Homo sapiens, UniProt P11836)", "T2 sequence (P11836 1-297)": "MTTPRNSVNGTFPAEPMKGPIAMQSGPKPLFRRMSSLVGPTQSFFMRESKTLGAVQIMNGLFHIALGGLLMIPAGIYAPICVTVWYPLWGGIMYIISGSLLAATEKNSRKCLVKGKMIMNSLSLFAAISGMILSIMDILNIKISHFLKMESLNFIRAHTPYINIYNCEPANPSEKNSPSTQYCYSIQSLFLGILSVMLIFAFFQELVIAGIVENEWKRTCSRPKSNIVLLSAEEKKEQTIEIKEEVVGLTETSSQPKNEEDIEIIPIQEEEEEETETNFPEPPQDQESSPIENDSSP"}}, "note": "“Also recorded” adds a separate entry of the source. Counter-ions that a name gives are not always drawn."}
{"molecule": "CC(C)Oc1ccc(-c2nn([C@@H](C)c3oc4ccc(F)cc4c(=O)c3-c3cccc(F)c3)c3ncnc(N)c23)cc1F", "note": "[TGR-1202, (S)-2-(1-(4-amino-3-(3-fluoro-4-isopropoxyphenyl)-1H-pyrazolo[3,4-d]pyrimidin-1-yl)ethyl)-6-fluoro-3-(3-fluorophenyl)-4H-chromen-4-one p-toluenesulfonic acid (PTSA) salt]", "values": [{"measurement": "hepatic toxicity", "setting": "[1]", "value": "no reported hepatic toxicity"}, {"measurement": "tolerability", "setting": "[1]; patients with relapsed or refractory hematologic malignancies", "value": "well-tolerated"}]}
{"molecule": "ofatumumab: anti-CD20 IgG1κ human monoclonal antibody", "values": [{"measurement": "dissociation rate from CD20 compared to rituximab", "setting": "CD20", "value": "slower rate"}]}
{"molecule": "B1", "values": [{"measurement": "responses in rituximab refractory patients", "setting": "[2]", "value": "Responses with single agent ublituximab were observed in rituximab refractory patients; also recorded: Responses with single agent ublituximab have been observed in rituximab refractory patients"}, {"measurement": "ADCC activity compared with rituximab and ofatumab", "setting": "CD20 antigen", "value": "greater antibody-dependent cellular cytotoxicity"}]}
